Test results reported in patent US20180057581A1 (MorphoSys, published 2018).

T1: Recombinant cynomolgus monkey sgM-CSF (cynomolgus (Macaca fascicularis), UniProt P09603 33-255 (human entry), limits assumed)
T1 construct: used also where only 'cynomolgus M-CSF' is printed (ELISA result, SET); also called cynomolgus sgM-CSF; cyno sgM-CSF
T1 chain: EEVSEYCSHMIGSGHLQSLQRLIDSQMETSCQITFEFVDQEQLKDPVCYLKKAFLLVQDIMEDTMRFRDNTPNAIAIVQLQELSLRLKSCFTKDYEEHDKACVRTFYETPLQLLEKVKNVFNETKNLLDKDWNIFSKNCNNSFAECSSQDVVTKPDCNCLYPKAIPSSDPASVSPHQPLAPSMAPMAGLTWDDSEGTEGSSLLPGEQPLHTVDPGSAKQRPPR

T2: Recombinant human sgM-CSF (human, UniProt P09603 33-255)
T2 construct: also called human secreted glycosylated M-CSF; Human M-CSF
T2 sequence: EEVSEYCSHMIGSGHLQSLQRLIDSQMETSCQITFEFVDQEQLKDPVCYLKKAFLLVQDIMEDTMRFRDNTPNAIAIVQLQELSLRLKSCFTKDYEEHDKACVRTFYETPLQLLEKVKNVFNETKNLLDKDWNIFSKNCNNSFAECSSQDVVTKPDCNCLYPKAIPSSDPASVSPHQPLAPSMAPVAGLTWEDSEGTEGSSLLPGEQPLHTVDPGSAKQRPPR

T3: human cell-surface M-CSF on stably transfected CHO cells (human, UniProt P09603 33-554)
T3 construct: also called csM-CSF
T3 sequence: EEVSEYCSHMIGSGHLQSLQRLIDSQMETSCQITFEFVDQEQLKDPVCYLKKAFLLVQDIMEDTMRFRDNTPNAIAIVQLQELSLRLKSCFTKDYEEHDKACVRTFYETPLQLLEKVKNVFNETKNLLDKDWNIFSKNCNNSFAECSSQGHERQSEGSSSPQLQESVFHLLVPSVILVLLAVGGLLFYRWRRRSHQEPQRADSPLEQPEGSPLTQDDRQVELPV


What was measured:
[1] = biological target: T1, Recombinant cynomolgus monkey sgM-CSF; assay: MSD receptor binding inhibition: 12.5 pM cynomolgus sgM-CSF preincubated with antibody, binding to coated human CSF1-R-Fc
Protocol: (§1) Complexes were then transferred to 384 well MSD plates coated with 2 μg/ml of the corresponding receptor. Plates were then washed and incubated with the streptavidin/ECL conjugate for 2 h with shaking at room temperature. 35 μl MSD read buffer T with surfactant was then added per well and subsequently measured using MSD Sector Imager 6000.

[2] = biological target: T2, Recombinant human sgM-CSF; assay: MSD receptor binding inhibition: 12.5 pM human sgM-CSF preincubated with antibody, binding to coated human CSF1-R-Fc
Protocol: as §1

[3] = biological target: T2, Recombinant human sgM-CSF; assay: cell-based or functional assay
[4] = biological target: T1, Recombinant cynomolgus monkey sgM-CSF; assay: cell-based or functional assay
[5] = biological target: T3, human cell-surface M-CSF on stably …; assay: FACS, CHO cells stably transfected with M-CSF (n = 3)

| Binder | IC50 [1] [pM] | IC50 [2] [pM] | IC50, inhibition of M-NFS-60 proliferation induced by recombinant human M-CSF (9.5 pM) [3] [pM] | IC50, inhibition of M-NFS-60 proliferation induced by recombinant cynomolgus M-CSF (9.5 pM) [4] [pM] | EC50 [5] [pM] |
| --- | --- | --- | --- | --- | --- |
| Romaine, IgG1_D265A (antibody, V domains shown, tested as IgG1 with D265A in the Fc (EU index); Parental antibody of Satine, Servane) VH: EVQLVESGGGLVKPGGSLRLSCAASGFTFSIYAMSWVRQAPGKGLEWVGRIKSNADGGTTEYAAPVKGRFTISRDDSKNTLYLQMNSLKTEDTAVYYCARMRYYSDLYFDPWGQGTLVTVSS VL: DIELTQPPSVSVSPGQTASITCSGDAIGSKYVHWYQQKPGQAPVLVISKDNKRPSGIPERFSGSNSGNTATLTISGTQAEDEADYYCQTATVSSYWWVFGGGTKLTVLG | 9.1 | 9.1 | 8.4 | 8.1 | 16400 |
| Satine, IgG1_D265A (antibody, V domains shown, tested as IgG1 with D265A in the Fc (EU index)) VH: EVQLVESGGGLVKPGGSLRLSCAASGFTFSIYAMSWVRQAPGKGLEWVGRIKSNADGGTTEYAAPVKGRFTISRDDSKNTLYLQMNSLKTEDTAVYYCARMRYYSDLYFDPWGQGTLVTVSS VL: SYELTQPPSVSVSPGQTASITCSGDKLGQKYVSWYQQKPGQSPVLVISQDRKRPSGIPERFSGSNSGNTATLTISGTQAEDEADYYCQTWTHLQWVFGGGTKLTVLG | 13.5 | 15.1 | 5.3 | 5.4 | 11300 |
| Servane, IgG1_D265A (antibody, V domains shown, tested as IgG1 with D265A in the Fc (EU index)) VH: EVQLVESGGGLVKPGGSLRLSCAASGFTFSTYAISWVRQAPGKGLEWVGFIKSKHNSGTTEYAAPVKGRFTISRDDSKNTLYLQMNSLKTEDTAVYYCARMRYYSDLYFDPWGQGTLVTVSS VL: SYELTQPPSVSVSPGQTASITCSGDKLGQKYVSWYQQKPGQSPVLVISQDRKRPSGIPERFSGSNSGNTATLTISGTQAEDEADYYCQTWTHLQWVFGGGTKLTVLG | 11.8 | 31.3 | 11.8 | 13.4 | 21300 |
| Blanche, IgG1_D265A (antibody, V domains shown, tested as IgG1 with D265A in the Fc (EU index); Parental antibody of Caline, Camille, Celine) VH: QVQLQQSGPGLVKPSQTLSLTCAISGDSVSSNSAAWNWIRQSPSRGLEWLGRTYYRSKWKHEYAMSVKSRITINPDTSKNQFSLQLNSVTPEDTAVYYCARDRYYYSAFDYWGQGTLVTVSS VL: DIALTQPASVSGSPGQSITISCTGTSSDVGGYNSVSWYQQHPGKAPKLMIYAVSNRPSGVSNRFSGSKSGNTASLTISGLQAEDEADYYCASYDERFTRVFGGGTKLTVLG | 6.6 | 6.2 | 2.9 | 3.3 | 7500 |
| Celine, IgG1_D265A (antibody, V domains shown, tested as IgG1 with D265A in the Fc (EU index)) VH: QVQLQQSGPGLVKPSQTLSLTCAISGDSVSTSSAAWNWIRQSPSRGLEWLGRTYYRSKWKHEYAVSVKSRITINPDTSKNQFSLQLNSVTPEDTAVYYCARDRYYYSAFDYWGQGTLVTVSS VL: QSALTQPASVSGSPGQSITISCTGTSSDVGGYNSVSWYQQHPGKAPKLIIYAVSNRPSGVSNRFSGSKSGNTASLTISGLQAEDEADYYCASYDERFTRVFGGGTKLTVLG | 6.9 | 4.7 | 2.7 | 3 | 9700 |
| Laurine, IgG1_D265A (antibody, V domains shown, tested as IgG1 with D265A in the Fc (EU index); Parental antibody of Madeleine, Maelle, Meriem) VH: QVQLQQSGPGLVKPSQTLSLTCAISGDSVSSNSAAWNWIRQSPSRGLEWLGRTYYRSKWKKEYAQSVKSRITINPDTSKNQFSLQLNSVTPEDTAVYYCARDRYYYSAFDYWGQGTLVTVSS VL: DIALTQPASVSGSPGQSITISCTGTSSDVGGYNSVSWYQQHPGKAPKLMIYAVSNRPSGVSNRFSGSKSGNTASLTISGLQAEDEADYYCASYDERFTRVFGGGTKLTVLG | 4.3 | 4.9 | 2.6 | 2.8 | 11200 |
| Madeleine, IgG1_D265A (antibody, V domains shown, tested as IgG1 with D265A in the Fc (EU index)) VH: QVQLQQSGPGLVKPSQTLSLTCAISGDSVSSNSAAWNWIRQSPSRGLEWLGRTYYRSKWKKEYAQSVKSRITINPDTSKNQFSLQLNSVTPEDTAVYYCARDRYYYSAFDYWGQGTLVTVSS VL: QSALTQPASVSGSPGQSITISCTGTSSDVGGYNSVSWYQQHPGKAPKLMIYAVSNRPSGVSNRFSGSKSGNTASLTISGLQAEDEADYYCASYDERFTRVFGGGTKLTVLG | 5.6 | 5.6 | 3 | 2.8 | 6400 |
| Meriem, IgG1_D265A (antibody, V domains shown, tested as IgG1 with D265A in the Fc (EU index)) VH: QVQLQQSGPGLVKPSQTLSLTCAISGDSVSTSSAAWNWIRQSPSRGLEWLGRTYYRSKWKKEYAQSVKSRITINPDTSKNQFSLQLNSVTPEDTAVYYCARDRYYYSAFDYWGQGTLVTVSS VL: QSALTQPASVSGSPGQSITISCTGTSSDVGGYNSVSWYQQHPGKAPKLIIYAVSNRPSGVSNRFSGSKSGNTASLTISGLQAEDEADYYCASYDERFTRVFGGGTKLTVLG | 7.3 | 7 | 3.1 | 2.8 | 12300 |
| Caline, IgG1_D265A (antibody, V domains shown, tested as IgG1 with D265A in the Fc (EU index)) VH: QVQLQQSGPGLVKPSQTLSLTCAISGDSVSSNSAAWNWIRQSPSRGLEWLGRTYYRSKWKHEYAMSVKSRITINPDTSKNQFSLQLNSVTPEDTAVYYCARDRYYYSAFDYWGQGTLVTVSS VL: QSALTQPASVSGSPGQSITISCTGTSSDVGGYNSVSWYQQHPGKAPKLMIYAVSNRPSGVSNRFSGSKSGNTASLTISGLQAEDEADYYCASYDERFTRVFGGGTKLTVLG | 6.3 | 6.1 | 3.1 | 4.3 | 9800 |
| Maelle, IgG1_D265A (antibody, V domains shown, tested as IgG1 with D265A in the Fc (EU index)) VH: QVQLQQSGPGLVKPSQTLSLTCAISGESVSTSSAAWNWIRQSPSRGLEWLGRTYYRSKWKKEYAQSVKSRITINPDTSKNQFSLQLNSVTPEDTAVYYCARDRYYYSAFDYWGQGTLVTVSS VL: QSALTQPASVSGSPGQSITISCTGTSSDVGGYNSVSWYQQHPGKAPKLIIYAVSNRPSGVSNRFSGSKSGNTASLTISGLQAEDEADYYCASYDERFTRVFGGGTKLTVLG | 6.4 | 5.3 | 2.7 | 2.3 | 10200 |
| Camille, IgG1_D265A (antibody, V domains shown, tested as IgG1 with D265A in the Fc (EU index)) VH: QVQLQQSGPGLVKPSQTLSLTCAISGESVSTSSAAWNWIRQSPSRGLEWLGRTYYRSKWKHEYAVSVKSRITINPDTSKNQFSLQLNSVTPEDTAVYYCARDRYYYSAFDYWGQGTLVTVSS VL: QSALTQPASVSGSPGQSITISCTGTSSDVGGYNSVSWYQQHPGKAPKLLIYAVSNRPSGVSNRFSGSKSGNTASLTISGLQAEDEADYYCASYDERFTRVFGGGTKLTVLG | 5.9 | 4.4 | 2.3 | 2.6 | 6100 |
